B1: TPD52L2 (parent)
chain: EAEEEELRAELTKVEEEIVTLRQV

Variants of: B1
Experiment: protein stability index of a GFP-peptide fusion (GPS, HEK-293T) (PSI 1-6); higher = more stable
Settings: c terminus: a fixed tail appended
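Also: lentivirally expressed fusions sorted by FACS into six bins by GFP to DsRed ratio, PSI derived from sequencing read proportions per bin multiplied by bin number.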

Variant | protein stability index
EAEEKELRAELTKVEEEIVTLRQV | 2.75
EAEELELRAELTKVEEEIVTLRQV | 2.64
EAEEMELRAELTKVEEEIVTLRQV | 2.48
EAEENELRAELTKVEEEIVTLRQV | 2.28
EAEEPELRAELTKVEEEIVTLRQV | 4.18
EAEEQELRAELTKVEEEIVTLRQV | 3.35
EAEERELRAELTKVEEEIVTLRQV | 2.89
EAEESELRAELTKVEEEIVTLRQV | 2.35
EAEETELRAELTKVEEEIVTLRQV | 2.71
EAEEVELRAELTKVEEEIVTLRQV | 1.62
EAEEWELRAELTKVEEEIVTLRQV | 2.42
EAEEYELRAELTKVEEEIVTLRQV | 3.06
EAEEEALRAELTKVEEEIVTLRQV | 3.06
EAEEECLRAELTKVEEEIVTLRQV | 2.51
EAEEEDLRAELTKVEEEIVTLRQV | 2.98
EAEEEFLRAELTKVEEEIVTLRQV | 2.68
EAEEEGLRAELTKVEEEIVTLRQV | 2.73
EAEEEHLRAELTKVEEEIVTLRQV | 2.91
EAEEEILRAELTKVEEEIVTLRQV | 3.62
EAEEEKLRAELTKVEEEIVTLRQV | 3
EAEEELLRAELTKVEEEIVTLRQV | 2.8
EAEEEMLRAELTKVEEEIVTLRQV | 2.08
EAEEENLRAELTKVEEEIVTLRQV | 3.15
EAEEEPLRAELTKVEEEIVTLRQV | 4.32

Variant | protein stability index
EAEEEQLRAELTKVEEEIVTLRQV | 3.46
EAEEERLRAELTKVEEEIVTLRQV | 3.23
EAEEESLRAELTKVEEEIVTLRQV | 3.12
EAEEETLRAELTKVEEEIVTLRQV | 3.58
EAEEEVLRAELTKVEEEIVTLRQV | 3.81
EAEEEWLRAELTKVEEEIVTLRQV | 2.62
EAEEEYLRAELTKVEEEIVTLRQV | 3.08
EAEEEEARAELTKVEEEIVTLRQV | 5.44
EAEEEECRAELTKVEEEIVTLRQV | 4.93
EAEEEEDRAELTKVEEEIVTLRQV | 5.5
EAEEEEERAELTKVEEEIVTLRQV | 5.74
EAEEEEFRAELTKVEEEIVTLRQV | 5.23
EAEEEEGRAELTKVEEEIVTLRQV | 5.14
EAEEEEHRAELTKVEEEIVTLRQV | 5.2
EAEEEEIRAELTKVEEEIVTLRQV | 5.39
EAEEEEKRAELTKVEEEIVTLRQV | 5.49
EAEEEEMRAELTKVEEEIVTLRQV | 5.21
EAEEEENRAELTKVEEEIVTLRQV | 5.41
EAEEEEPRAELTKVEEEIVTLRQV | 5.55
EAEEEEQRAELTKVEEEIVTLRQV | 5.62
EAEEEERRAELTKVEEEIVTLRQV | 5.49
EAEEEESRAELTKVEEEIVTLRQV | 5.58
EAEEEETRAELTKVEEEIVTLRQV | 5.39
EAEEEEVRAELTKVEEEIVTLRQV | 5.77

Variant | protein stability index
EAEEEEWRAELTKVEEEIVTLRQV | 4.92
EAEEEEYRAELTKVEEEIVTLRQV | 5.29
EAEEEELAAELTKVEEEIVTLRQV | 4.23
EAEEEELCAELTKVEEEIVTLRQV | 4.16
EAEEEELDAELTKVEEEIVTLRQV | 4.91
EAEEEELEAELTKVEEEIVTLRQV | 4.84
EAEEEELFAELTKVEEEIVTLRQV | 3.66
EAEEEELGAELTKVEEEIVTLRQV | 4.55
EAEEEELHAELTKVEEEIVTLRQV | 3.91
EAEEEELIAELTKVEEEIVTLRQV | 3.83
EAEEEELKAELTKVEEEIVTLRQV | 4.59
EAEEEELLAELTKVEEEIVTLRQV | 3.6
EAEEEELMAELTKVEEEIVTLRQV | 3.79
EAEEEELNAELTKVEEEIVTLRQV | 4.51
EAEEEELPAELTKVEEEIVTLRQV | 5.43
EAEEEELQAELTKVEEEIVTLRQV | 3.96
EAEEEELSAELTKVEEEIVTLRQV | 4.79
EAEEEELTAELTKVEEEIVTLRQV | 5.17
EAEEEELVAELTKVEEEIVTLRQV | 3.97
EAEEEELWAELTKVEEEIVTLRQV | 2.59
EAEEEELYAELTKVEEEIVTLRQV | 3.41
EAEEEELRCELTKVEEEIVTLRQV | 3.98
EAEEEELRDELTKVEEEIVTLRQV | 3.93
EAEEEELREELTKVEEEIVTLRQV | 4.34

Variant | protein stability index
EAEEEELRFELTKVEEEIVTLRQV | 2.4
EAEEEELRGELTKVEEEIVTLRQV | 4.9
EAEEEELRHELTKVEEEIVTLRQV | 2.82
EAEEEELRIELTKVEEEIVTLRQV | 2.37
EAEEEELRKELTKVEEEIVTLRQV | 3.68
EAEEEELRLELTKVEEEIVTLRQV | 2.62
EAEEEELRMELTKVEEEIVTLRQV | 2.95
EAEEEELRNELTKVEEEIVTLRQV | 3.79
EAEEEELRPELTKVEEEIVTLRQV | 5.11
EAEEEELRQELTKVEEEIVTLRQV | 4
EAEEEELRRELTKVEEEIVTLRQV | 3.64
EAEEEELRSELTKVEEEIVTLRQV | 4.32
EAEEEELRTELTKVEEEIVTLRQV | 3.67
EAEEEELRVELTKVEEEIVTLRQV | 3.74
EAEEEELRWELTKVEEEIVTLRQV | 2.51
EAEEEELRYELTKVEEEIVTLRQV | 3.44
EAEEEELRAALTKVEEEIVTLRQV | 3.05
EAEEEELRACLTKVEEEIVTLRQV | 4.84
EAEEEELRADLTKVEEEIVTLRQV | 4.36
EAEEEELRAFLTKVEEEIVTLRQV | 3.64
EAEEEELRAGLTKVEEEIVTLRQV | 5.34
EAEEEELRAHLTKVEEEIVTLRQV | 4.38
